Measured values published in patent US20220096654A1, “PYRROLOBENZODIAZEPINE-ANTIBODY CONJUGATES AND USES THEREOF” (ADC THERAPEUTICS SA, priority 2020, published 2022).

How the values were obtained:
[1] = system: Nalm6 (CD45-); assay: Cell viability assay 5 days (PrestoBlue), Nalm6; format: cell-based, human; conditions: rat IgG2b ADC, n=3
Protocol: (§1) OCIM1, Jurkat and Nalm6 cells were seeded at a final concentration of 1.275×10^4/mL and for 5 days in presence of rat IgG2b Mab or ADC or medium (in triplicate) in wells of flat bottom 96-well plates. 293T cells were seeded at 9.3×10^3 cells per 100 uL per well in flat bottom 96-well plates and allowed to adhere the plate for up to 24 hours. 293T cells were subsequently cultured with rat IgG2b Mabs or ADC or medium (in triplicate wells) as described above. PrestoBlue® Cell viability Reagent (Thermo Fisher Scientific) was added to each and incubated for up to 1.5 hours. Fluorescence intensity from each well was detected using a FLUOstar OPTIMA microplate reader (BMG Labtech). Data was plotted using Prism 8.0 and sigmoid dose-response non-linear regression was used to determine EC50 values. Data points are mean±s.d. for representative experiments.

[2] = system: 293T (CD45-); assay: Cell viability assay 5 days (PrestoBlue), 293T; format: cell-based, human; conditions: rat IgG2b ADC, n=3
Protocol: as §1

[3] = biological target: T1, human CD45 (human, UniProt P08575 26-1306); assay: cell-based or functional assay
T1 sequence: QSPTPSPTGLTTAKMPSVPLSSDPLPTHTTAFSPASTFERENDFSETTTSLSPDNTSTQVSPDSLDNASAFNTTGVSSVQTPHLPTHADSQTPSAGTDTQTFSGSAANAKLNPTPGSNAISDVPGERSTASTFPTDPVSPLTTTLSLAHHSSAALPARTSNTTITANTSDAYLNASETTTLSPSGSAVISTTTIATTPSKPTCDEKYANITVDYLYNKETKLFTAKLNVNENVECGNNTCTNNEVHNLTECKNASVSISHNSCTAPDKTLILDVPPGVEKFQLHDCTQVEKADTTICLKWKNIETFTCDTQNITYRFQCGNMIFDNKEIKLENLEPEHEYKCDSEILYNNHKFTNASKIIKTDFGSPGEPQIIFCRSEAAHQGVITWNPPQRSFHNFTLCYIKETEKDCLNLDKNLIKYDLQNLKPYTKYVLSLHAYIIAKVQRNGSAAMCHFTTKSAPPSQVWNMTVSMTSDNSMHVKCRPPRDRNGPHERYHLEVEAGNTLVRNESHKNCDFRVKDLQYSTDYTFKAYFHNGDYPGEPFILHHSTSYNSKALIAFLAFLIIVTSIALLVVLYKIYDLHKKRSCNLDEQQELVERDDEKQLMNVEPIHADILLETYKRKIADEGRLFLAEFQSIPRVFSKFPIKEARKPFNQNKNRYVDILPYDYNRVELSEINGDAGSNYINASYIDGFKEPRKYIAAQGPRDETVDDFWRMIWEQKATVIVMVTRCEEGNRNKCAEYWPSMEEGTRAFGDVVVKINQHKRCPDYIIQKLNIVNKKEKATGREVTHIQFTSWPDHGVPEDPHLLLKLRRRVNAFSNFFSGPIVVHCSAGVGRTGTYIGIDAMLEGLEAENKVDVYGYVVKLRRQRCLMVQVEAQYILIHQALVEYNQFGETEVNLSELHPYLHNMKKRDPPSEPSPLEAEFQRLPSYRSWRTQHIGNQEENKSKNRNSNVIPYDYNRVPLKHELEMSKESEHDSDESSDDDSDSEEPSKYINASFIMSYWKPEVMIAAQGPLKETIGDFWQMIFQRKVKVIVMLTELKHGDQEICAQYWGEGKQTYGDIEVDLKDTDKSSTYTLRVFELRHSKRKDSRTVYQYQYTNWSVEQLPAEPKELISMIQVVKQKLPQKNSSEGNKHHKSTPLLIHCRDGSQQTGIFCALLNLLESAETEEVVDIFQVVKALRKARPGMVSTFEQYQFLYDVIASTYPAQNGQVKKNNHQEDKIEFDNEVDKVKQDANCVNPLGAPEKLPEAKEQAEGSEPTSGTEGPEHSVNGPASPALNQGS

[4] = biological target: T1, human CD45; assay: cell-based or functional assay; remark: listed apart in the source
[5] = biological target: T1, human CD45; assay: cell-based or functional assay; remark: listed apart in the source

Row | Molecule | EC50 [1] [pM] | EC50 [2] [pM] | EC50, clonogenic assay, CD34+ PBSC (CD45+) [3] [pM] | EC50, viability assay, Jurkat (CD45+), 72 h [3] [pM] | EC50, viability assay, OCIM1 (CD45+), 72 h [3] [pM] | Average EC50, viability assay, Jurkat (CD45+), 5 days [4] [pM] | Average EC50, viability assay, OCIM1 (CD45+), 5 days [4] [pM] | Average EC50, clonogenic assay, primary human CD34+ cells [5] [pM]
1 | YTH54.12-B2: rat IgG2b anti-CD45 antibody YTH54.12 conjugated to PBD drug-linker B2 (drawing 44) (conjugate) heavy: EVQLVESGGGLVQPGGSMKLSCAASGFTFSDYYMAWVRQAPKKGLEWVASMSFAGSSTYYGDSVKGRFTISRDNAKTTLYLQMNSLRSEDTATYYCARMYTTDYYLYWYFDFWGPGTMVTVSSAQTTAPSVYPLAPGCGDTTSSTVTLGCLVKGYFPEPVTVTWNSGALSSDVHTFPAVLQSGLYTLTSSVTSSTWPSQTVTCNVAHPASSTKVDKKVERRNGGIGHKCPTCPTCHKCPVPELLGGPSVFIFPPKPKDILLISQNAKVTCVVVDVSEEEPDVQFSWFVNNVEVHTAQTQPREEQYNSTFRVVSALPIQHQDWMSGKEFKCKVNNKALPSPIEKTISKPKGLVRKPQVYVMGPPTEQLTEQTVSLTCLTSGFLPNDIGVEWTSNGHIEKNYKNTEPVMDSDGSFFMYSKLNVERSRWDSRAPFVCSVVHEGLHNHHVEKSISRPPGK light: DVQMTQSPSYLAASPGESVSISCKASKSISNYLAWYQQKPGEANKILIYSGSTLQSGTPSRFSGSGSGTDFSLTIRNLEPEDFAVYYCQQYDEKPLTFGSGTKLEIKRADAAPTVSIFPPSMEQLTSGGATVVCFVNNFYPRDISVKWKIDGSEQRDGVLDSVTDQDSKDSTYSMSSTLSLTKVEYERHNLYTCEVVHKTSSSPVVKSFNRNEC | 27.9 | > 6000 | – | – | – | – | – | –
2 | YTH54.12-hIgG1-AAA-PBD (antibody, DAR 2.10, V domains shown) VH: EVQLVESGGGLVQPGGSMKLSCAASGFTFSDYYMAWVRQAPKKGLEWVASMSFAGSSTYYGDSVKGRFTISRDNAKTTLYLQMNSLRSEDTATYYCARMYTTDYYLYWYFDFWGPGTMVTVSS VL: DVQMTQSPSYLAASPGESVSISCKASKSISNYLAWYQQKPGEANKILIYSGSTLQSGTPSRFSGSGSGTDFSLTIRNLEPEDFAVYYCQQYDEKPLTFGSGTKLEIK | – | – | 6.4 | 18 | 9.7 | – | – | –
3 | YTH54.12-B7 (antibody, V domains shown, PBD drug-linker B7 conjugated; sites and DAR not stated) VH: EVQLVESGGGLVQPGGSMKLSCAASGFTFSDYYMAWVRQAPKKGLEWVASMSFAGSSTYYGDSVKGRFTISRDNAKTTLYLQMNSLRSEDTATYYCARMYTTDYYLYWYFDFWGPGTMVTVSS VL: DVQMTQSPSYLAASPGESVSISCKASKSISNYLAWYQQKPGEANKILIYSGSTLQSGTPSRFSGSGSGTDFSLTIRNLEPEDFAVYYCQQYDEKPLTFGSGTKLEIKR | – | – | – | – | – | 4.79 | 1.07 | 45.1
4 | YTH54.12-rat IgG2b-PBD (drug-linker B1) (antibody, V domains shown, PBD dimer drug-linker B1; light chains unconjugated or attached to a single molecule of B1; sites not given; PBD dimer drug-linker B1 conjugated after TCEP reduction; heavy chains attached to up to five molecules of B1; sites not given; DAR 1.90 (preparation) / 2.00) VH: EVQLVESGGGLVQPGGSMKLSCAASGFTFSDYYMAWVRQAPKKGLEWVASMSFAGSSTYYGDSVKGRFTISRDNAKTTLYLQMNSLRSEDTATYYCARMYTTDYYLYWYFDFWGPGTMVTVSS VL: DVQMTQSPSYLAASPGESVSISCKASKSISNYLAWYQQKPGEANKILIYSGSTLQSGTPSRFSGSGSGTDFSLTIRNLEPEDFAVYYCQQYDEKPLTFGSGTKLEIKR | – | – | 23 | 4.44 | 1.89 | 0.127 | 0.039 | 1.52
5 | YTH54.12-B2 (antibody, V domains shown, PBD drug-linker B2 conjugated; sites and DAR not stated) VH: EVQLVESGGGLVQPGGSMKLSCAASGFTFSDYYMAWVRQAPKKGLEWVASMSFAGSSTYYGDSVKGRFTISRDNAKTTLYLQMNSLRSEDTATYYCARMYTTDYYLYWYFDFWGPGTMVTVSS VL: DVQMTQSPSYLAASPGESVSISCKASKSISNYLAWYQQKPGEANKILIYSGSTLQSGTPSRFSGSGSGTDFSLTIRNLEPEDFAVYYCQQYDEKPLTFGSGTKLEIKR | – | – | – | – | – | 2.43 | 0.58 | 23.9
6 | YTH54.12-B4 (antibody, V domains shown, PBD drug-linker B4 (non-cleavable) conjugated; sites and DAR not stated) VH: EVQLVESGGGLVQPGGSMKLSCAASGFTFSDYYMAWVRQAPKKGLEWVASMSFAGSSTYYGDSVKGRFTISRDNAKTTLYLQMNSLRSEDTATYYCARMYTTDYYLYWYFDFWGPGTMVTVSS VL: DVQMTQSPSYLAASPGESVSISCKASKSISNYLAWYQQKPGEANKILIYSGSTLQSGTPSRFSGSGSGTDFSLTIRNLEPEDFAVYYCQQYDEKPLTFGSGTKLEIKR | – | – | – | – | – | 0.091 | 0.22 | 4.47
7 | YTH24.5-rat IgG2b-PBD (drug-linker B1) (antibody, V domains shown, PBD dimer drug-linker B1; light chains unconjugated or attached to a single molecule of B1; sites not given; PBD dimer drug-linker B1 conjugated after TCEP reduction; heavy chains attached to up to five molecules of B1; sites not given; DAR 1.94 (preparation) / 2.00) VH: QVNLLQSGAALVKPGASVKLSCKASSYTFTDYYIHWVKQSHGKTLEWIGYINPKSGFTNYNEKFRRKATLTVDKSTNTAYMDISRLTSEDSATYYCTRRTGVIPMDAWGQGASVTVSS VL: DVVMTQTPVSLSVSLGGQVSISCRSSQSFVSSDGNTYLNWYLQKPGQSPQLLIYKVSNRLSGVPDRFSGSGSGTDFTLKISRVEHDDLGVYYCGQASKIPLTFGSGTKLEIKR | – | – | 16.5 | 5.36 | 1.38 | 0.213 | 0.03 | 2.64
8 | YTH24.5-hIgG1-AAA-PBD (antibody, DAR 2.08, V domains shown) VH: QVNLLQSGAALVKPGASVKLSCKASSYTFTDYYIHWVKQSHGKTLEWIGYINPKSGFTNYNEKFRRKATLTVDKSTNTAYMDISRLTSEDSATYYCTRRTGVIPMDAWGQGASVTVSS VL: DVVMTQTPVSLSVSLGGQVSISCRSSQSFVSSDGNTYLNWYLQKPGQSPQLLIYKVSNRLSGVPDRFSGSGSGTDFTLKISRVEHDDLGVYYCGQASKIPLTFGSGTKLEIK | – | – | 7.9 | 23 | 6.8 | – | – | –
9 | YTH24.5-B4 (antibody, V domains shown, PBD drug-linker B4 (non-cleavable) conjugated; sites and DAR not stated) VH: QVNLLQSGAALVKPGASVKLSCKASSYTFTDYYIHWVKQSHGKTLEWIGYINPKSGFTNYNEKFRRKATLTVDKSTNTAYMDISRLTSEDSATYYCTRRTGVIPMDAWGQGASVTVSS VL: DVVMTQTPVSLSVSLGGQVSISCRSSQSFVSSDGNTYLNWYLQKPGQSPQLLIYKVSNRLSGVPDRFSGSGSGTDFTLKISRVEHDDLGVYYCGQASKIPLTFGSGTKLEIKR | – | – | – | – | – | 0.052 | 0.096 | 4.92
10 | YTH24.5-B2 (antibody, V domains shown, PBD drug-linker B2 conjugated; sites and DAR not stated) VH: QVNLLQSGAALVKPGASVKLSCKASSYTFTDYYIHWVKQSHGKTLEWIGYINPKSGFTNYNEKFRRKATLTVDKSTNTAYMDISRLTSEDSATYYCTRRTGVIPMDAWGQGASVTVSS VL: DVVMTQTPVSLSVSLGGQVSISCRSSQSFVSSDGNTYLNWYLQKPGQSPQLLIYKVSNRLSGVPDRFSGSGSGTDFTLKISRVEHDDLGVYYCGQASKIPLTFGSGTKLEIKR | – | – | – | – | – | 2.12 | 0.025 | 32.7
11 | YTH24.5-B7 (antibody, V domains shown, PBD drug-linker B7 conjugated; sites and DAR not stated) VH: QVNLLQSGAALVKPGASVKLSCKASSYTFTDYYIHWVKQSHGKTLEWIGYINPKSGFTNYNEKFRRKATLTVDKSTNTAYMDISRLTSEDSATYYCTRRTGVIPMDAWGQGASVTVSS VL: DVVMTQTPVSLSVSLGGQVSISCRSSQSFVSSDGNTYLNWYLQKPGQSPQLLIYKVSNRLSGVPDRFSGSGSGTDFTLKISRVEHDDLGVYYCGQASKIPLTFGSGTKLEIKR | – | – | – | – | – | 8.4 | 2.18 | 35.5
